These results are taken from the supplement of paper PMC5998384.

The test system of data set [1] is HeLa Kyoto. The data set is described as follows: melting temperature (median over replicates), in situ; higher = more thermally stable.
Data set [2] has as its system HeLa Kyoto. Description: solubility change mitosis vs G1/S (difference of NP-40 vs SDS log2 ratios) (log2 ratio difference); higher = more soluble in mitosis.
The subject of data set [3] is HeLa Kyoto. Description: thermal stability score vs G1/S (z-score of summed log2 fold changes over temperatures); higher = more thermally stable than in G1/S.
Data set [4] has as its system HeLa Kyoto. Description: solubility in G1/S (NP-40 vs SDS abundance) (log2 ratio); higher = more soluble. Particulars: cell cycle stage: G1/S.
The mark [5] stands for this setting: cell cycle stage: early G1 (4.5 h after nocodazole release).
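For melting temperature (median over replicates), in situ in this document: HeLa Kyoto cells synchronized by double thymidine or nocodazole block, proteins quantified by TMT10plex mass spectrometry, three independent biological replicates.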
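For solubility change mitosis vs G1/S (difference of NP-40 vs SDS log2 ratios) in this document: synchronized HeLa Kyoto cells (double thymidine block for G1/S, nocodazole release for mitosis), protein amounts in NP-40 versus SDS lysates quantified by mass spectrometry, three biological replicates.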
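For solubility in G1/S (NP-40 vs SDS abundance) in this document: HeLa Kyoto cells arrested at G1/S by double thymidine block, proteins quantified by TMT10plex mass spectrometry in mild NP-40 versus SDS extracts, three biological replicates.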
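For thermal stability score vs G1/S (z-score of summed log2 fold changes over temperatures) in this document: synchronized HeLa Kyoto cells, proteins quantified by TMT10plex mass spectrometry, three biological replicates, mitosis taken 0.5 h after nocodazole release, G1/S directly after double thymidine block.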

In the case of “MTDQENNNNISSNPFAALFGSLADAKQFAAIQKEQLKQQSDELPASPDDSDNSVSESLDEFDYSVAEISRSFRSQQEICEQLNINHMIQRIFLITLDNSDPSLKSGNGIPSRCVYLEEMAVELEDQDWLDMSNVEQALFARLLLQDPGNHLINMTSSTTLNLSADRDAGERHIFCYLYSCFQRAKEEITKVPENLLPFAVQCRNLTVSNTRTVLLTPEIYVDQNIHEQLVDLMLEAIQGAHFEDVTEFLEEVIEALILDEEVRTFPEVMIPVFDILLGRIKDLELCQILLYAYLDILLYFTRQKDMAKVFVEYIQPKDPTNGQMYQKTLLGVILSISCLLKTPGVVENHGYFLNPSRSSPQEIKVQEANIHQFMAQFHEKIYQMLKNLLQLSPETKHCILSWLGNCLHANAGRTKIWANQMPEIFFQMYASDAFFLNLGAALLKLCQPFCKPRSSRLLTFNPTYCALKELNDEERKIKNVHMRGLDKETCLIPAVQEPKFPQNYNLVTENLALTEYTLYLGFHRLHDQMVKINQNLHRLQVAWRDAQQSSSPAADNLREQFERLMTIYLSTKTAMTEPQMLQNCLNLQVSMAVLLVQLAIGNEGSQPIELTFPLPDGYSSLAYVPEFFADNLGDFLIFLRRFADDILETSADSLEHVLHFITIFTGSIERMKNPHLRAKLAEVLEAVMPHLDQTPNPLVSSVFHRKRVFCNFQYAPQLAEALIKVFVDIEFTGDPHQFEQKFNYRRPMYPILRYMWGTDTYRESIKDLADYASKNLEAMNPPLFLRFLNLLMNDAIFLLDEAIQYLSKIKIQQIEKDRGEWDSLTPEARREKEAGLQMFGQLARFHNIMSNETIGTLAFLTSEIKSLFVHPFLAERIISMLNYFLQHLVGPKMGALKVKDFSEFDFKPQQLVSDICTIYLNLGDEENFCATVPKDGRSYSPTLFAQTVRVLKKINKPGNMIMAFSNLAERIKSLADLQQQEEETYADACDEFLDPIMSTLMCDPVVLPSSRVTVDRSTIARHLLSDQTDPFNRSPLTMDQIRPNTELKEKIQRWLAERKQQKEQLE [UBE4A]”, the melting temperature stood at 49.4 °C in the data set on HeLa Kyoto [1] (cell cycle stage: G1/S) and 50 °C in the data set with HeLa Kyoto [1] (cell cycle stage: mitosis). The “solubility change mitosis (log2)” value in the data set with HeLa Kyoto [2] is -0.0832. For the same sequence, the thermal stability score is -0.166 in the data set with HeLa Kyoto [3] (setting [5]) and 0.519 with HeLa Kyoto [3] (cell cycle stage: mitosis). For the same sequence, the “solubility in G1/S (log2)” value in the data set on HeLa Kyoto [4] was -0.123.

In the case of “MTEEACRTRSQKRALERDPTEDDVESKKIKMERGLLASDLNTDGDMRVTPEPGAGPTQGLLRATEATAMAMGRGEGLVGDGPVDMRTSHSDMKSERRPPSPDVIVLSDNEQPSSPRVNGLTTVALKETSTEALMKSSPEERERMIKQLKEELRLEEAKLVLLKKLRQSQIQKEATAQKPTGSVGSTVTTPPPLVRGTQNIPAGKPSLQTSSARMPGSVIPPPLVRGGQQASSKLGPQASSQVVMPPLVRGAQQIHSIRQHSSTGPPPLLLAPRASVPSVQIQGQRIIQQGLIRVANVPNTSLLVNIPQPTPASLKGTTATSAQANSTPTSVASVVTSAESPASRQAAAKLALRKQLEKTLLEIPPPKPPAPEMNFLPSAANNEFIYLVGLEEVVQNLLETQGRMSAATVLSREPYMCAQCKTDFTCRWREEKSGAIMCENCMTTNQKKALKVEHTSRLKAAFVKALQQEQEIEQRLLQQGTAPAQAKAEPTAAPHPVLKQVIKPRRKLAFRSGEARDWSNGAVLQASSQLSRGSATTPRGVLHTFSPSPKLQNSASATALVSRTGRHSERTVSAGKGSATSNWKKTPLSTGGTLAFVSPSLAVHKSSSAVDRQREYLLDMIPPRSIPQSATWK [GATAD2A]”, the figures for the melting temperature in the data set on HeLa Kyoto [1] (cell cycle stage: G1/S) and with HeLa Kyoto [1] (cell cycle stage: mitosis) were 47.3 °C and 50.4 °C, respectively. For the same sequence, in the data set with HeLa Kyoto [2], the “solubility change mitosis (log2)” value came out at 0.0452. For the same sequence, the thermal stability score with HeLa Kyoto [3] (setting [5]) amounted to 0.921; in the data set with HeLa Kyoto [3] (cell cycle stage: mitosis), 3.21. Further, the “solubility in G1/S (log2)” value with HeLa Kyoto [4] was 0.481.

Regarding “MTELQQDVEDTKPAKVLGKRESKLGSAHSEAENGVEEKKKACRSPTAQSPTPSVEADSPDQKKIISLWSKSSFDGASLASDKNDCKTESKNDPKTERKKSSSSSQYKANMHFHKLFLSVPTEEPLKQSFTCALQKEILYQGKLFVSENWICFHSKVFGKDTKISIPAFSVTLIKKTKTALLVPNALIIATVTDRYIFVSLLSRDSTYKLLKSVCGHLENTSVGNSPNPSSAENSFRADRPSSLPLDFNDEFSDLDGVVQQRRQDMEGYSSSGSQTPESENSRDFHATESQTVLNVSKGEAKPTRADAHVNRVPEGKAKSLPVQGLSETVGILHKVKSQKCPMLHHILIFYAIVVCALIISTFYMRYRINTLEEQLGLLTSIVDTHNTEQAAPSGLRSQVQFNVEVLCQELTANIVKLEKIQNNLQKLLENGD [GRAMD3]”, the results for the melting temperature in the data set on HeLa Kyoto [1] (cell cycle stage: G1/S) and in the data set on HeLa Kyoto [1] (cell cycle stage: mitosis) were 49.3 °C and 51 °C, respectively. The “solubility change mitosis (log2)” value in the data set with HeLa Kyoto [2] is -0.244. The thermal stability score in the data set with HeLa Kyoto [3] (setting [5]) was -0.258; in the data set with HeLa Kyoto [3] (cell cycle stage: mitosis), 1.75. Besides, in the data set with HeLa Kyoto [4], the “solubility in G1/S (log2)” value amounted to 0.0879.

Regarding “MTELQSALLLRRQLAELNKNPVEGFSAGLIDDNDLYRWEVLIIGPPDTLYEGGVFKAHLTFPKDYPLRPPKMKFITEIWHPNVDKNGDVCISILHEPGEDKYGYEKPEERWLPIHTVETIMISVISMLADPNGDSPANVDAAKEWREDRNGEFKRKVARCVRKSQETAFE [UBE2G1]”, the values for the melting temperature in the data set with HeLa Kyoto [1] (cell cycle stage: G1/S) and with HeLa Kyoto [1] (cell cycle stage: mitosis) were 51.7 °C and 53 °C, respectively. In addition, the “solubility change mitosis (log2)” value in the data set with HeLa Kyoto [2] turned out to be 0.0506. For the same sequence, the thermal stability score is -0.274 with HeLa Kyoto [3] (setting [5]) and 0.392 in the data set with HeLa Kyoto [3] (cell cycle stage: mitosis). In addition, the “solubility in G1/S (log2)” value in the data set on HeLa Kyoto [4] turned out to be 0.543.

On to “MTEQAISFAKDFLAGGIAAAISKTAVAPIERVKLLLQVQHASKQIAADKQYKGIVDCIVRIPKEQGVLSFWRGNLANVIRYFPTQALNFAFKDKYKQIFLGGVDKHTQFWRYFAGNLASGGAAGATSLCFVYPLDFARTRLAADVGKSGTEREFRGLGDCLVKITKSDGIRGLYQGFSVSVQGIIIYRAAYFGVYDTAKGMLPDPKNTHIVVSWMIAQTVTAVAGVVSYPFDTVRRRMMMQSGRKGADIMYTGTVDCWRKIFRDEGGKAFFKGAWSNVLRGMGGAFVLVLYDELKKVI [SLC25A6]”, for which the melting temperature is 57.1 °C in the data set with HeLa Kyoto [1] (cell cycle stage: G1/S) and 57.4 °C in the data set with HeLa Kyoto [1] (cell cycle stage: mitosis). In addition, the “solubility change mitosis (log2)” value in the data set with HeLa Kyoto [2] came out at 0.0142. Further, the thermal stability score is -0.865 in the data set on HeLa Kyoto [3] (setting [5]) and -3.48 in the data set on HeLa Kyoto [3] (cell cycle stage: mitosis). Moreover, the “solubility in G1/S (log2)” value in the data set with HeLa Kyoto [4] is -0.157.
